The results in this text go back to article PMC5737863, “Entirely enzymatic nanofabrication of DNA–protein conjugates”.

Data set [1] has as its target HER2 (UniProt P04626 23-652). The data set can be described thus: bead pull-down, GFP fluorescence; aptamer conjugated to mVirD2-GFP; PBS, room temperature; Conjugation/EMSA: TKM buffer (50 mM Tris-HCl pH 8, 150 mM KCl, 1 mM MgCl2, 10% glycerol), 37 C, 1 h, 10% native PAGE; HER2 beads: PBS, room temperature, 15 min. The settings on record: protein: commercial; tags: Fc; label: GFP (via conjugated protein).

In data set [2] the target is T1, mVirD2 (Agrobacterium tumefaciens (from …, UniProt P06668 1-204)).
T1 sequence: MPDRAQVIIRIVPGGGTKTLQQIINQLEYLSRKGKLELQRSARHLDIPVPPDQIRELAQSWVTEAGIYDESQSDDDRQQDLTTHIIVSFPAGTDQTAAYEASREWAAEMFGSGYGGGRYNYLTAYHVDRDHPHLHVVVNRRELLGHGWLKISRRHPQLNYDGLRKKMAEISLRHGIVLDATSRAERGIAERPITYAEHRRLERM
The data set can be described thus: EMSA; apparent Kd; 1 mM Mg2+; covalent conjugation; Conjugation/EMSA: TKM buffer (50 mM Tris-HCl pH 8, 150 mM KCl, 1 mM MgCl2, 10% glycerol), 37 C, 1 h, 10% native PAGE; HER2 beads: PBS, room temperature, 15 min. Conditions: protein: recombinant; tags: N-terminal 6xHis; label: 3' Cy3.

The target of data set [3] is T1, mVirD2. In words: EMSA; 1 mM Mg2+; higher conjugate yield than T1; Conjugation/EMSA: TKM buffer (50 mM Tris-HCl pH 8, 150 mM KCl, 1 mM MgCl2, 10% glycerol), 37 C, 1 h, 10% native PAGE; HER2 beads: PBS, room temperature, 15 min. Conditions: protein: recombinant; tags: N-terminal 6xHis; label: 3' Cy3. A general note: In EMSA bound probe runs differently from free probe, usually more slowly.

Data set [4] concerns the target T1, mVirD2. In words: EMSA; non-covalent; no nicking; Conjugation/EMSA: TKM buffer (50 mM Tris-HCl pH 8, 150 mM KCl, 1 mM MgCl2, 10% glycerol), 37 C, 1 h, 10% native PAGE; HER2 beads: PBS, room temperature, 15 min. The settings on record: protein: recombinant; tags: N-terminal 6xHis; single-stranded.
Data set [5] has as its target T2, mVirD2-GFP (Agrobacterium tumefaciens (from …, UniProt P06668 1-204)).
T2 sequence: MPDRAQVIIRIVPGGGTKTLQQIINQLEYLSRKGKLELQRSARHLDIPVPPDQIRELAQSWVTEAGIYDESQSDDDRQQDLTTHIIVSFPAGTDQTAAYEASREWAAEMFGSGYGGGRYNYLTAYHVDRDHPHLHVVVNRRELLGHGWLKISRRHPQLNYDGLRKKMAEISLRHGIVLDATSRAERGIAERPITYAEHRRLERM
In words: denaturing PAGE shift; covalent conjugate; Conjugation/EMSA: TKM buffer (50 mM Tris-HCl pH 8, 150 mM KCl, 1 mM MgCl2, 10% glycerol), 37 C, 1 h, 10% native PAGE; HER2 beads: PBS, room temperature, 15 min. The settings on record: protein: recombinant; tags: N-terminal 6xHis.

Data set [6] deals with T1, mVirD2. The data set can be described thus: denaturing PAGE and SDS-PAGE shift; covalent conjugate; Conjugation/EMSA: TKM buffer (50 mM Tris-HCl pH 8, 150 mM KCl, 1 mM MgCl2, 10% glycerol), 37 C, 1 h, 10% native PAGE; HER2 beads: PBS, room temperature, 15 min. The settings on record: protein: recombinant; tags: N-terminal 6xHis.

B1: HeA2_3 aptamer, nicked and conjugated to mVirD2-GFP (ssDNA)
DNA: CCAGTCAGTAGGGAAGAGAAGGACATATGATTCTAAAAGGATTCTTCCCAAGGGGATCCAATTCAAACAGC
modifications: 5' end covalently linked to mVirD2-GFP Tyr29
B1: the binding result in data set [1] is “binds”. For the molecule GCTCAAATTACAACGGTATATATCCTGCCAGTCAG (ssDNA) [T1 (VirTarget)], the Kd in data set [2] was determined as 468 ± 68 nM. As for GCTCAAATTACAACGGTATATATCCTGCCAGTCAG (XNA, phosphorothioate bonds at underlined bases (underline lost in text)) [PS-T1VirTarget], the binding result in data set [3] is “binds”.

B2: ss Cut site RNA (mixed)
DNA: GCTCAAATTACAACGGTATATATCCTGCCAGTCAG
modifications: DNA-RNA chimera; AT-rich binding sequence is DNA, cut site is RNA (bold lost in text)
As for B2, the binding result in data set [4] was “binds”.

B3: MOSIC HeA2_3 with mVirD2 site (ssDNA)
DNA: GCTCAAATTACAACGGTATATATCCTGCCAGTCAGTAGGGAAGAGAAGGACATATGATTCTAAAAGGATTCTTCCCAAGGGGATCCAATTCAAACAGC
Turning to B3, the binding result in data set [5] and in data set [6] was “binds” throughout.
